Assay results from patent US20110269161.

Tests used:
[1] = biological target: T1, peptide C11 (NKRRGSVPILPFR), derived from erythrocyte membrane protein band 4.2 (Ser247)
T1 chain: NKRRGSVPILPFR

[2] = biological target: T2, peptide F6 (RIRTQSFSLQPFR), derived from nitric-oxide synthase, endothelial (Ser1176)
T2 chain: RIRTQSFSLQPFR

[3] = biological target: T3, peptide C6 (TKRSGSVYEPPFR), derived from phosphorylase b kinase regulatory subunit beta (Ser26)
T3 chain: TKRSGSVYEPPFR

[4] = biological target: T4, peptide B6 (PKRKVSSAEGPFR), derived from nonhistone chromosomal protein HMG-14 (Ser6)
T4 chain: PKRKVSSAEGPFR

[5] = biological target: T5, peptide G5 (SKRRNSEFEIPFR), derived from tryptophan 5-hydroxylase 1 (Ser58)
T5 chain: SKRRNSEFEIPFR

[6] = biological target: T6, peptide E11 (RKRLISSVEDPFR), derived from tuberin (Ser1798)
T6 chain: RKRLISSVEDPFR

B1: 90 kDa ribosomal S6 kinases 1 (RSK1, 1-735), purified human active kinase (protein)
chain: MPLAQLKEPWPLMELVPLDPENGQTSGEEAGLQPSKDEGVLKEISITHHVKAGSEKADPSHFELLKVLGQGSFGKVFLVRKVTRPDSGHLYAMKVLKKATLKVRDRVRTKMERDILADVNHPFVVKLHYAFQTEGKLYLILDFLRGGDLFTRLSKEVMFTEEDVKFYLAELALGLDHLHSLGIIYRDLKPENILLDEEGHIKLTDFGLSKEAIDHEKKAYSFCGTVEYMAPEVVNRQGHSHSADWWSYGVLMFEMLTGSLPFQGKDRKETMTLILKAKLGMPQFLSTEAQSLLRALFKRNPANRLGSGPDGAEEIKRHVFYSTIDWNKLYRREIKPPFKPAVAQPDDTFYFDTEFTSRTPKDSPGIPPSAGAHQLFRGFSFVATGLMEDDGKPRAPQAPLHSVVQQLHGKNLVFSDGYVVKETIGVGSYSECKRCVHKATNMEYAVKVIDKSKRDPSEEIEILLRYGQHPNIITLKDVYDDGKHVYLVTELMRGGELLDKILRQKFFSEREASFVLHTIGKTVEYLHSQGVVHRDLKPSNILYVDESGNPECLRICDFGFAKQLRAENGLLMTPCYTANFVAPEVLKRQGYDEGCDIWSLGILLYTMLAGYTPFANGPSDTPEEILTRIGSGKFTLSGGNWNTVSETAKDLVSKMLHVDPHQRLTAKQVLQHPWVTQKDKLPQSQLSHQDLQLVKGAMAATYSALNSSKPTPQLKPIESSILAQRRVRKLPSTTL
in vitro peptide phosphorylation by recombinant kinase (KAYAK, LC-MS) [1]: recombinant RSK1 could robustly phosphorylate peptides B6, C6, C11 and G5 in vitro | peptide phosphorylation, 100 µM peptide reacted individually [2]: both RSK and Akt demonstrated strong phosphorylation | in vitro peptide phosphorylation by recombinant kinase (KAYAK, LC-MS) [3]: recombinant RSK1 could robustly phosphorylate peptides B6, C6, C11 and G5 in vitro | in vitro peptide phosphorylation by recombinant kinase (KAYAK, LC-MS) [4]: recombinant RSK1 could robustly phosphorylate peptides B6, C6, C11 and G5 in vitro | in vitro peptide phosphorylation by recombinant kinase (KAYAK, LC-MS) [5]: recombinant RSK1 could robustly phosphorylate peptides B6, C6, C11 and G5 in vitro | phosphorylation by purified kinase (KAYAK profiling of 90 peptides) [6]: is preferably phosphorylated by purified RSK1 enzyme
